Sequences and labels used below:
B5: Mouse BiP (residues 27-655) (natural protein)
chain: not shown
notes: BiP, mouse, residues 27-655; also called full-length BiP; source: E. coli BL21, purified (Ni-NTA, anion exchange, SEC); not shown: His6, N-terminal, cleaved

In one data set the target is T1, FITC-labeled BiP NBD (mouse, FITC on Cys27 (D27C)).
T1 construct: also called FITC-NBD; D27C BiP; source: E. coli BL21, purified
The data set can be described thus: fluorescence polarisation; 50 nM FITC-labeled BiP NBD constructs, Grp94 or Grp94 MD titrated; 25 mM Tris pH 7.5, 50 mM KCl, 1 mM ADP (hexokinase-treated), 1 mM DTT; single-site binding fit. Particulars: both partners purified. (In fluorescence polarisation assays a small probe gives low polarisation when free and higher when bound to something large.)

The target in data set [1] is T2, FITC-labeled BiP_(D187A) NBD (mouse, FITC on Cys27 (D27C)).
T2 construct: interface II mutant; also called FITC-D187A NBD; source: E. coli BL21, purified
Described as above. Particulars: both partners purified.

For data set [2], the target named is B5. The data set can be described thus: fluorescence polarisation; 50 nM FITC-labeled client construct, BiP alone or Grp94 alone titrated; ADP conditions; 60 mM HEPES pH 7.0, 50 mM KCl, 5 mM MgCl2, 5% or 0% DMSO, 1 mM DTT, 0.75 mg/mL BSA, 1 mM ADP, 30 °C; single-site fit. Particulars: both partners purified.
Another data set deals with T3, BiP/Grp94 (mouse, UniProt P20029 27-655; P08113 72-765, Δ287-328).
T3 construct: BiP, mouse, residues 27-655; Grp94, mouse, residues 72-765 with the charged linker removed (Δ287-328); also called BiP and Grp94; source: E. coli BL21, each purified (Ni-NTA, anion exchange, SEC), mixed; not shown: His6, N-terminal, cleaved; copies: + 2
T3 sequence (P20029 27-655, stated change not applied, one chain of several): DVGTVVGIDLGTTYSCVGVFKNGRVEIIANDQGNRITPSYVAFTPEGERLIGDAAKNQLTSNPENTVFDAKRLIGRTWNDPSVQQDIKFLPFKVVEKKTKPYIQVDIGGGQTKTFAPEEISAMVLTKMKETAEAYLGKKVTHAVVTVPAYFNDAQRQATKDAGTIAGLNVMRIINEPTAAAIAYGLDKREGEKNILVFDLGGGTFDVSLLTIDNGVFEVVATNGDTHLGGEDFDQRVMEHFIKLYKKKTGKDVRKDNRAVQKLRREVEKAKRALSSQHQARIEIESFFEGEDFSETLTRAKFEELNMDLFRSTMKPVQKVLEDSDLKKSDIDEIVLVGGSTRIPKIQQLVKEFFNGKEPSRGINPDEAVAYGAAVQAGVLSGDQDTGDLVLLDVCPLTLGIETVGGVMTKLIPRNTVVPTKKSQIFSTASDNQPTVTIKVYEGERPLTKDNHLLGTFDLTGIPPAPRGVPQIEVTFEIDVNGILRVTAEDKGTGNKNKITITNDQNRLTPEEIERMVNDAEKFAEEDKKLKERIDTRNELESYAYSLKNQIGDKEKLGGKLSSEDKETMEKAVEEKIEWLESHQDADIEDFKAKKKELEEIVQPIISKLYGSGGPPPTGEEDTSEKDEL
The data set can be described thus: fluorescence polarisation; FITC-labeled client preincubated with BiP, Grp94 then added; BiP and Grp94 varied together (Fig. 6A, B; apparent) or 5 μM BiP and 5 μM Grp94 monomer (ΔP, Fig. 6C), with and without inhibitors; ADP conditions; 60 mM HEPES pH 7.0, 50 mM KCl, 5 mM MgCl2, 1 mM DTT, 0.75 mg/mL BSA, 1 mM ADP, 30 °C. Particulars: both partners purified.

Data set [3] concerns the molecule itself. The data set can be described thus: cross-linking; 1 μM M86C Grp94 dimer, 50 mM KCl, 50 mM Tris pH 8, 4% DMSO, with or without 5 μM BiP NBD and 50 μM inhibitor; disulfide formed with 10 mM oxidized glutathione, 25 °C, 2 h; SDS-PAGE.
The target of data set [4] is T4, Grp94 (residues 72-765) with the charged-linker removed (Δ287-328) (mouse, UniProt P08113 72-765, Δ287-328).
T4 construct: Grp94, mouse, residues 72-765 with the charged linker removed (Δ287-328); also called wild-type Grp94; source: E. coli BL21, purified (Ni-NTA, anion exchange, SEC); not shown: His6, N-terminal, cleaved
The data set can be described thus: fluorescence polarisation; FITC-labeled client preincubated with BiP, Grp94 then added; BiP and Grp94 varied together (Fig. 6A, B; apparent) or 5 μM BiP and 5 μM Grp94 monomer (ΔP, Fig. 6C), with and without inhibitors; ADP conditions; 60 mM HEPES pH 7.0, 50 mM KCl, 5 mM MgCl2, 1 mM DTT, 0.75 mg/mL BSA, 1 mM ADP, 30 °C. Particulars: both partners purified.

Consider 5 molecules from article PMC12000397, “Mechanism of client loading from BiP to Grp94 and its disruption by select inhibitors” (Nature Communications, 2025).

Where “and” joins values, the source holds several entries; their conditions need not be identical. Equal entries are not always repeated. Ends that are not written are not given here.

B1: Grp94 MD (domain or fragment)
chain: NDIKPIWQRPSKEVEEDEYKAFYKSFSKESDDPMAYIHFTAEGEVTFKSILFVPTSAPRGLFDEYGSKKSDYIKLYVRRVFITDDFHDMMPKYLNFVKGVVDSDDLPLNVSRETLQQHKLLKVIRKKLVRKTLDMIKKIADEKYNDTFWKEFGTNIKLGVIEDHSNRTRLAKLLRFQSSHHSTDITSLDQYVERMKEKQDKIYFMAGSSRKEAESSPFVERLLKKGYEVIYLTEPVDEYCIQALPEFDGKRFQNVAKE
On to B1, for which the Kd in the data set with FITC-labeled BiP NBD was 5.8 ± 1.2 µM; in data set [1], 6.5 ± 0.7 µM.

B2: FITC-labeled proIGF2_(25-120) (domain or fragment)
chain: AYGPGETLSGGELVDTLQFVSSDRGFYFSRPSSRANRRSRGIVEECSFRSSDLALLETYSATPAKSERDVSTSQAVLPDDFPRYPVGKFFQYDTWR
modifications: FITC (maleimide) on Cys70
As to B2, the Kd in data set [2] is 1.5 µM and 2.5 µM; with BiP/Grp94, 1.1 ± 0.2 µM.

B3: M86C Grp94 (natural protein, mouse, UniProt P08113 72-765, looked up)
chain: KSEKFAFQAEVNRMCKLIINSLYKNKEIFLRELISNASDALDKIRLISLTDENALAGNEELTVKIKCDKEKNLLHVTDTGVGMTREELVKNLGTIAKSGTSEFLNKMTEAQEDGQSTSELIGQFGVGFYSAFLVADKVIVTSKHNNDTQHIWESDSNEFSVIADPRGNTLGRGTTITLVLKEEASDYLELDTIKNLVRKYSQFINFPIYVWSSKTTVWDWELMNDIKPIWQRPSKEVEEDEYKAFYKSFSKESDDPMAYIHFTAEGEVTFKSILFVPTSAPRGLFDEYGSKKSDYIKLYVRRVFITDDFHDMMPKYLNFVKGVVDSDDLPLNVSRETLQQHKLLKVIRKKLVRKTLDMIKKIADEKYNDTFWKEFGTNIKLGVIEDHSNRTRLAKLLRFQSSHHSTDITSLDQYVERMKEKQDKIYFMAGSSRKEAESSPFVERLLKKGYEVIYLTEPVDEYCIQALPEFDGKRFQNVAKEGVKFDESEKTKESREATEKEFEPLLNWMKDKALKDKIEKAVVSQRLTESPCALVASQYGWSGNMERIMKAQAYQTGKDISTNYYASQKKTFEINPRHPLIRDMLRRIKEDEDDKTVMDLAVVLFETATLRSGYLLPDTKAYGDRIERMLRLSLNIDPEAQVEEEPEEEPED
notes: Grp94, mouse, residues 72-765 with the charged linker removed (Δ287-328), M86C for a designed disulfide bond; also called Grp94_(M86C); source: E. coli BL21, purified (Ni-NTA, anion exchange, SEC); not shown: His6, N-terminal, cleaved
Consider B3, for which, in data set [3], the binding result is on record as “binds”.

B4: proIGF2_(92-120) fragment (Ext. Site 1), FITC-labeled (domain or fragment, UniProt P01344 92-120, looked up)
chain: RDVC(FITC maleimide)TPPTVLPDNFPRYPVGKFFQYDTWK
notes: proIGF2 residues 92-120, cysteine mutation at Ser95; also called extended site 1; source: purified from inclusion bodies (8 M urea; ion exchange and/or Ni-NTA, denaturing)
B4 registered a Kd in data set [2] of 1.9 ± 0.5 µM. On to B5, for which the binding result in data set [4] is “binds”.
